Experimental data reported in US20230340429A1, “STEVIOL GLYCOSIDE HEXOSE TRANSFERASE AND GENE CODING FOR SAME” (SUNTORY HOLDINGS LIMITED, priority 2016, published 2023).
Substitutions are numbered along the chain they refer to.

B1: UGT91D2: known Stevia rebaudiana UDP sugar-dependent glycosyltransferase, amino acid sequence SEQ ID NO: 4 (protein, listed as Stevia rebaudiana)
chain: MYNVTYHQNSKAMATSDSIVDDRKQLHVATFPWLAFGHILPYLQLSKLIAEKGHKVSFLSTTRNIQRLSSHISPLINVVQLTLPRVQELPEDAEATTDVHPEDIPYLKKASDGLQPEVTRFLEQHSPDWIIYDYTHYWLPSIAASLGISRAHFSVTTPWAIAYMGPSADAMINGSDGRTTVEDLTTPPKWFPFPTKVCWRKHDLARLVPYKAPGISDGYRMGLVLKGSDCLLSKCYHEFGTQWLPLLETLHQVPVVPVGLLPPEIPGDEKDETWVSIKKWLDGKQKGSVVYVALGSEVLVSQTEVVELALGLELSGLPFVWAYRKPKGPAKSDSVELPDGFVERTRDRGLVWTSWAPQLRILSHESVCGFLTHCGSGSIVEGLMFGHPLIMLPIFGDQPLNARLLEDKQVGIEIPRNEEDGCLTKESVARSLRSVVVEKEGEIYKANARELSKIYNDTKVEKEYVSQFVDYLEKNARAVAIDHES
B2: UGT91D2L #16: novel Stevia rebaudiana UGT highly homologous with UGT91D2, amino acid sequence SEQ ID NO: 2 (protein, listed as Stevia rebaudiana)
chain: B1 chain with Y42F, T156V, S233F, V298A, I394L, K439N, Y471F

Assays:
[1] = system: Saccharomyces cerevisiae strain YPH499; assay: Production of Reb.C from steviol in yeast coexpressing UGTs and AtRHM2; assay type: cell-based; conditions: yeast coexpressing UGT85C2, UGT74G1, UGT76G1 and AtRHM2; 0.5 μg or 2 μg of steviol per 1 ml; HPLC, LC-MS
Description: [Example 5] RebC synthesis by fermentative production using yeast Various steviol glycosides were produced from steviol in yeast. First, yeast that simultaneously expresses the 4 glycosylation enzyme genes UGT85C2 (SEQ ID NO: 7), UGT91D2 (SEQ ID NO: 3), UGT74G1 (SEQ ID NO: 9), and UGT76G1 (SEQ ID NO: 11) or the 4 genes UGT85C2, UGT91D2L #16, UGT74G1, and UGT76G1 from Stevia rebaudiana and the UDP-rhamnose synthase gene AtRHM2 (SEQ ID NO: 13) from Arabidopsis thaliana has been created.
The plasmids set forth in Table 1 were introduced into the Saccharomyces cerevisiae strain YPH499 (ura3-52 lys2-801^amber ade2-101^ochre trp1-Δ63 his3-Δ200 leu2-Δ1 a) as a host by the lithium acetate method. Those that grew on SC-Trp&Ura&His agar medium (6.7 g of Yeast nitrogen base without amino acids, 20 g of glucose, 1.3 g of amino acid mixture powder Trp&Ura&His, 20 g of Bacto agar, per 1 L) were selected as transformant strains.
First, 10 ml of SC-Trp&Ura&His liquid medium (SC-Trp&Ura&His agar medium without Bacto agar) was inoculated each transformant strain as a preculture and cultured with shaking at 30° C. for 1 day. […]
The obtained glycoside sample was analyzed with high performance liquid chromatography (HPLC). […]

[2] = in vitro rhamnosylation activity (RhaT) of Escherichia coli-expressed UGT protein with UDP-rhamnose; assay type: biochemical; conditions: recombinant protein, LC-MS
Description: (§1) The standard enzymatic reaction conditions are as follows. A reaction solution (2 mM UDP-glucose, 0.1 mM sugar receptor substrate, 100 mM potassium phosphate buffer (pH 7.5), 25 μl of purified enzyme solution) was prepared to 50 μl with distilled water and incubated at 30° C. for 1 hour to react. The LC-MS analysis of 5 μl of the enzymatic reaction solution was carried out under the following conditions.
(§2) • Column: Imtakt SM-C18 3.0 um 4.6 mm I.D.×250 mm • Mobile phase: A: MilliQ Water (+0.2% acetic acid), • B: Methanol • Gradient: 0 to 5 min (B conc 10% constant), 5 to 20 min (B conc 10%→70%), 20 to 25 min (B conc 70%→100%), 25 to 35 min (B conc 100% constant), 35 to 36 min (B conc 100%→10%), 45 min end of analysis • Flow rate: 0.4 mL/min • Column oven: 40° C.
(§3) Evaluation of Mutants 1 and 2 was then made using the protein expressed in Escherichia coli in the same manner as in Example 4. The glucosylation activity (GlcT) and the rhamnosylation activity (RhaT) were evaluated using UDP-glucose and UDP-rhamnose, respectively, as the sugar donor and using rubusoside as the substrate, which is a sugar receptor. Stevioside and dulcoside A were produced as the reaction products in the former and in the latter, respectively.

[3] = in vitro glucosylation activity (GlcT) of Escherichia coli-expressed UGT protein with UDP-glucose; assay type: biochemical; conditions: recombinant protein, 30° C. 1 hour, LC-MS
Description: as §1, §2, §3

Molecule | amount of Reb.C produced [1] | activity to rhamnosylate rubusoside to produce dulcoside A [2] | activity to glucosylate rubusoside to produce stevioside [3]
B1 | Reb.C was produced | production of dulcoside A | production of stevioside
B2 | higher than that in the strain A-5678 expressing UGT91D2 | markedly higher than SrUGT91D2 | weaker than SrUGT91D2
